In paper PMC2836553:
Read-outs that look alike come from different tables or passages of the source.

Tests used:
Assay in all cases: FRET
XPF-wt;PCNA heterotrimer [1] = target: T1, XPF-wt;PCNA heterotrimer (Saccharolobus (Sulfolobus) …, UniProt Q7LXL5;P57766;Q97Z84;P57765 1-233;1-249;1-245;1-244, |)
T1 sequence 1: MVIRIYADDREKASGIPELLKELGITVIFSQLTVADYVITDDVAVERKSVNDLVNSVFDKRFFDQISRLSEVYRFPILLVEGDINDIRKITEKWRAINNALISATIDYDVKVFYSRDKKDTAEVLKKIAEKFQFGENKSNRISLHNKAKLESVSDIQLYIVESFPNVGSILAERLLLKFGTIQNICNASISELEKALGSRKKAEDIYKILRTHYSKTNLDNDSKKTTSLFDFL
T1 sequence 2: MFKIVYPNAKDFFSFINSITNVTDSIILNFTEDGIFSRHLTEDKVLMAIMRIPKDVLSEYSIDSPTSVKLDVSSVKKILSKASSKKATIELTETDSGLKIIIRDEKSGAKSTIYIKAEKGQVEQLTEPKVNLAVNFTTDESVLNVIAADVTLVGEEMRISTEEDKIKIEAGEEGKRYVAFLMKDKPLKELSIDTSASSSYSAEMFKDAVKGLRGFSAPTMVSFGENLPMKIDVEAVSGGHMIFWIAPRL
T1 sequence 3: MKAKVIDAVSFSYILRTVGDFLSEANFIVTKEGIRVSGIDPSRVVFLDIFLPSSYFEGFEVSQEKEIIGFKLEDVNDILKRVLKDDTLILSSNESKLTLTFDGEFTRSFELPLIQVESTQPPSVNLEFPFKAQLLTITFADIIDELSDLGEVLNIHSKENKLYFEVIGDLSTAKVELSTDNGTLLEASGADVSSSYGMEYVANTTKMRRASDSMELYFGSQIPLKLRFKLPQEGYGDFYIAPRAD
T1 sequence 4: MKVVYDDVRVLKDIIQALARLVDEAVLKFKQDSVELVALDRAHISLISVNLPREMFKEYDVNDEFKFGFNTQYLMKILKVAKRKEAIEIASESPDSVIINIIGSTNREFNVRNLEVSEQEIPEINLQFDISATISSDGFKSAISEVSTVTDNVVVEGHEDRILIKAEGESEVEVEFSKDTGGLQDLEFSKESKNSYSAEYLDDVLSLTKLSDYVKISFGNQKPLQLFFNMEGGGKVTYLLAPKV

[2] = target: T2, XPF-Δnuc (HhH2 domain);PCNA heterotrimer (Sulfolobus solfataricus P2;Sulfolobus …, UniProt Q7LXL5;P57766;Q97Z84;P57765 =M+148-233;1-249;1-245;1-244, internal_change|)
T2 sequence 1: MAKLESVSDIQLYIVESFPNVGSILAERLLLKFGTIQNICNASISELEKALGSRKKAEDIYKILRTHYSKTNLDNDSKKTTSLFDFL
T2 sequence 2: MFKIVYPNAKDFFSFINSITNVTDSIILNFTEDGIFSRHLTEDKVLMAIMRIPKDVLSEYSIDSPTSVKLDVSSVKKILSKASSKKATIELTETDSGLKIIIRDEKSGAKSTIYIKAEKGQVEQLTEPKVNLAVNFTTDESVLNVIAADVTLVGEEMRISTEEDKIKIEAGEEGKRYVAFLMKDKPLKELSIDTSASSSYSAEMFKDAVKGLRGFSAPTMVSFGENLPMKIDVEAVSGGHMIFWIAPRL
T2 sequence 3: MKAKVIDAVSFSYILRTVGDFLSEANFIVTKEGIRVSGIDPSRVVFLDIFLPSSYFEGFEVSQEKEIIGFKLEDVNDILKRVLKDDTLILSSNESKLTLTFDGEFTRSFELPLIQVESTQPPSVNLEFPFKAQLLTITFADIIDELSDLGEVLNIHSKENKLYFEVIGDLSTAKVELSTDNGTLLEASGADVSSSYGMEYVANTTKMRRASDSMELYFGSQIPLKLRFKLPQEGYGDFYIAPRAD
T2 sequence 4: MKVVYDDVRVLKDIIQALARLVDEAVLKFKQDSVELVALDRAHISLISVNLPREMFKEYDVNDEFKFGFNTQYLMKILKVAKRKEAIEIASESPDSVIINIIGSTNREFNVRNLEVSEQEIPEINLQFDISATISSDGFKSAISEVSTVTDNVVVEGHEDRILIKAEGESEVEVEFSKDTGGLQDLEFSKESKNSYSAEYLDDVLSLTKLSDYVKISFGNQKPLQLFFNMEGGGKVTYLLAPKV

XPF-ΔPIP (Δ6 XPF) [3] = target: T3, XPF-ΔPIP (Δ6 XPF) (Sulfolobus solfataricus, UniProt Q7LXL5 1-227)
T3 sequence: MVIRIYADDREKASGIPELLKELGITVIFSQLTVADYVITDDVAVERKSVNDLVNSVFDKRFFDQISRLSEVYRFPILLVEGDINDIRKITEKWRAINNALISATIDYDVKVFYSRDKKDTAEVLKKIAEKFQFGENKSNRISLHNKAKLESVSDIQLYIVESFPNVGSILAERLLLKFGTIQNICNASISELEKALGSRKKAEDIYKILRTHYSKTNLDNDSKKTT

XPF-wt [4] = target: T4, XPF-wt (Saccharolobus (Sulfolobus) solfataricus, UniProt Q7LXL5 1-233)
T4 sequence: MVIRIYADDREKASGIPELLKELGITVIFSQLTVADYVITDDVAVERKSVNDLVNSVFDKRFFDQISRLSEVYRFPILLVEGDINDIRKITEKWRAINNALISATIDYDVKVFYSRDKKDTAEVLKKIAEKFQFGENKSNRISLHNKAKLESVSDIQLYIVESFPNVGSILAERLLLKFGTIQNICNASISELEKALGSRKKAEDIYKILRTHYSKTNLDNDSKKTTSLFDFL

XPF-Δnuc (HhH2 domain) [5] = target: T5, XPF-Δnuc (HhH2 domain) (Sulfolobus solfataricus P2, UniProt Q7LXL5 =M+148-233, internal_change)
T5 sequence: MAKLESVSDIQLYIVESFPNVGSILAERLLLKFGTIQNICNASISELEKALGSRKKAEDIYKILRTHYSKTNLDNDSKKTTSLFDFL

XPF-ΔPIP (Δ6 XPF) [6] = target: T3, XPF-ΔPIP (Δ6 XPF); remark: listed apart in the source
XPF-wt;PCNA heterotrimer [7] = target: T1, XPF-wt;PCNA heterotrimer; remark: listed apart in the source
XPF-wt [8] = target: T4, XPF-wt; remark: listed apart in the source
XPF-ΔPIP (Δ6 XPF) [9] = target: T3, XPF-ΔPIP (Δ6 XPF); remark: listed apart in the source
XPF-Δnuc (HhH2 domain) [10] = target: T5, XPF-Δnuc (HhH2 domain); remark: listed apart in the source

B1: 3' flap, three vectors (global fit) (structured_DNA)
DNA 1: AGCCCGACAGCAGTCAGAGCTTGCTAGGACGGACGGT
DNA 2: ACCGTCCGTCCTAGCAAGCATTTTTTT
DNA 3: TCTGACTGCTGTCGGGCT
modifications: dye positions as in Flap-12, Flap-13 and Flap-23
B1 showed a Kd (XPF-wt;PCNA heterotrimer [1]) of 60 ± 10 nM, a Kd [2] of 110 ± 10 nM and a Kd (XPF-ΔPIP (Δ6 XPF) [3]) of 3100 ± 500 nM. The Kd (XPF-wt [4]) was 5300 ± 600 nM and the Kd (XPF-Δnuc (HhH2 domain) [5]) was 8000 ± 1000 nM.

B2: Flap-23 (structured_DNA)
DNA 1: AGCCCGACAGCAGTCAGAGCTTGCTAGGACGGACGGT
DNA 2: ACCGTCCGTCCTAGCAAGCATTTTTTT
DNA 3: TCTGACTGCTGTCGGGCT
modifications: 3' Cy3 on B strand; internal fluorescein-dT at T10 of C strand
Binder B2 has a Kd (XPF-ΔPIP (Δ6 XPF) [6]) of 1800 ± 300 nM, a Kd (XPF-wt;PCNA heterotrimer [7]) of 50 ± 10 nM and a Kd (XPF-wt [8]) of 5000 ± 600 nM. The Kd (XPF-ΔPIP (Δ6 XPF) [9]) was 1600 ± 200 nM.

B3: Flap-13 (structured_DNA)
DNA 1: AGCCCGACAGCAGTCAGAGCTTGCTAGGACGGACGGT
DNA 2: ACCGTCCGTCCTAGCAAGCATTTTTTT
DNA 3: TCTGACTGCTGTCGGGCT
modifications: amino-C6-dT at T9 of B strand; internal fluorescein-dT at T10 of C strand
B3 showed a Kd (XPF-wt;PCNA heterotrimer [7]) of 60 ± 10 nM, a Kd (XPF-wt [8]) of 9200 ± 3000 nM and a Kd (XPF-Δnuc (HhH2 domain) [10]) of 8000 ± 2000 nM.

B4: Flap-12 (structured_DNA)
DNA 1: AGCCCGACAGCAGTCAGAGCTTGCTAGGACGGACGGT
DNA 2: ACCGTCCGTCCTAGCAAGCATTTTTTT
DNA 3: TCTGACTGCTGTCGGGCT
modifications: internal fluorescein-dT at T9 of B strand; 3' amino modifier on B strand
Work on B4 yielded a Kd (XPF-ΔPIP (Δ6 XPF) [6]) of 1600 ± 600 nM and a Kd (XPF-wt [8]) of 2600 ± 400 nM.
